# Measured values reported in patent US20040147006.
# How the values were obtained:
# [1] = system: phosphorylated peptide E1-P1 25 (SEQ ID NO: 18)
# [2] = system: phosphorylated T-ag peptide of SEQ ID NO: 15 used in the ATPase assay
# [3] = system: unphosphorylated peptide E1-P2 25 (SEQ ID NO: 2)
# [4] = system: unphosphorylated peptide T-2 13 (SEQ ID NO: 3)
substance,measurement,setting,value
SV40 T-antigen (T-ag),"ATPase of T-ag (32P-ATP hydrolysis, TLC autoradiography)",[1],had no effect
same,"ATPase of T-ag (32P-ATP hydrolysis, TLC autoradiography)",[2],the phosphorylated peptide did not modulate the ATPase of T-ag activity
same,"ATPase of T-ag (32P-ATP hydrolysis, TLC autoradiography)",[3],blocked the degradation of ATP by T-ag
same,"ATPase of T-ag (32P-ATP hydrolysis, TLC autoradiography)",[4],this peptide inhibited the ATPase of T-ag
